Assay results published in PMC2171039.

Legend:
[1] = target: GST::PalC (Aspergillus nidulans); experiment: pull-down
[2] = target: Vps32 (Aspergillus nidulans); experiment: two-hybrid
Sequence of Vps32 (Aspergillus nidulans) (C8V487 whole entry): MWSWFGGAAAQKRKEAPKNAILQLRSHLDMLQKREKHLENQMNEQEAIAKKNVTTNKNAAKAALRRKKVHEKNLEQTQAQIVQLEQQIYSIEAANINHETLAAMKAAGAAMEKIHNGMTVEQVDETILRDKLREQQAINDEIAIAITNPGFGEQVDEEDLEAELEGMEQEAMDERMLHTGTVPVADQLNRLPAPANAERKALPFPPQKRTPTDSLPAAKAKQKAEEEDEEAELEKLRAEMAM

Work on zz-Vps32 (natural protein) yielded a stoichiometry N (mol of zz-Vps32 per mole of GST::PalC) [1] of 0.9.
With PalC Arg442Ala (natural protein) the β-galactosidase activity, % of the wild type (% of the wild type) [2] was 18.
PalC Arg442His (natural protein) showed a β-galactosidase activity, % of the wild type (% of the wild type) [2] of 11.
